Changes are numbered by the printed parent chain.
B1: COVID19_P01_H05 (scFv, V domains shown)
VH: QVQLVQSGAEVKKPGSSVKVSCKASGGTFSNFALTWVRQAPGQGLEWMGLINPSGGSTSYAQRFQGRVTITADESTSTAYMELSSLRSEDTAVYYCARDSVMGGMDVWGQGTLVTVSS
VL: SSYVLTQPPSVSVAPGKTARITCGGNNIGSKSVHWYQQKPGQAPVLVIYYDSDRPSGIPERFSGSNSGNTATLTISRVEAGDEADYYCQVWASSSDYVFGGGTKLTVLA
B2: COVID19_P14_H10 (scFv, V domains shown)
VH: QVQLVQSGAEVKKPGSSVKVSCKASGGSFSRFPISWVRQAPGQGLEWMGGIIPIFGTANYAQRFQGRVTITADESTSTAYMELSSLRSEDTAVYYCALETVMGGLQVWGQGTLVTVSS
VL: B1 VL with A92D
B3: COVID19_P14_F07 (scFv, V domains shown)
VH: QVQLVQSGAEVKKPGSSVKVSCKASGGTFSSYAISWMRQAPGQGLEWMGWINPNSGGTNYAQKFQGRVTITADESTSTAYMELSNLRSEDTAVYYCARDTYWGGMDVWGQGTLVTVSS
VL: B1 VL with A92D, D96F
B4: COVID19_P01_B08 (scFv, V domains shown)
VH: B1 VH with L34I, L50V, S54G, S59T, R63T, S100T
VL: B1 VL with A92D
B5: COVID19_P01_E11 (scFv, V domains shown)
VH: QVQLVQSGAEVKKPGSSVKVSCKASGGTFSNYTITWVRQAPGQGLEWLGWISAYNGNTDYAQKLQGRVTITADESTSTAYMELSSLRSEDTAVYYCARDALMGGMDVWGQGTLVTVSS
VL: B1 VL with A92D, S94R
B6: COVID19_P14_F06 (scFv, V domains shown)
VH: B1 VH with N31S, L34I, T35I, G49A, G55S, S57T, R63K, D99E, S100T
VL: B1 VL with A92D, D96H
B7: COVID19_P14_B07 (scFv, V domains shown)
VH: QVQLVQSGAEVKKPGSSVKVSCKASGYTFTSYGISWVRQAPGQGLEWMGWINPNSGGTNYAQKFQGRVTITADESTSTAYMELSSLRSEDTAVYYCAVETVMGGFTVWGQGTLVTVSS
VL: B1 VL with A92D
B8: COVID19_P02_A04 (scFv, V domains shown)
VH: QVQLVQSGAEVKKPGSSVKVSCKASGYAFTSYYMHWVRQAPGQGLEWMGVIDPSEGSTSNARKFQGRVTITADESTSTAYMELSSLRSEDTAVYYCVSDTVMGGMDVWGQGTLVTVSS
VL: B1 VL with I48V, Y50D, A92D, D96L
B9: COVID19_P13_B05 (scFv, V domains shown)
VH: B3 VH with G27Y, S30T, A33D, S35N, M37V, N85S, Y101F, W102F
VL: B1 VL with A92D, D96Y
B10: COVID19_P02_A11 (scFv, V domains shown)
VH: QVQLVQSGAEVKKPGSSVKVSCKASGSTFSMFAINWVRQAPGQGLEWVGVINPRGSSTTYAQKFQGRVTITADESTSTAYMELSSLRSEDTAVYYCARDTVMGGMDVWGQGTLVTVSS
VL: B1 VL with A92D, S93R
B11: COVID19_P14_B05 (scFv, V domains shown)
VH: B1 VH with N31S, F32Y, A33T, L34I, T35S, L50I, R63K, S100T, D106G
VL: B1 VL with A92D, D96F
B12: COVID19_P01_H10 (scFv, V domains shown)
VH: QVQLVQSGAEVKKPGSSVKVSCKASGGTFGNYPITWVRQAPGQGLEWMGIIYPGDSDARYRPSFQGRVTITADESTSTAYMELSSLRSEDTAVYYCARDFSMGGMDVWGQGTLVTVSS
VL: B1 VL with A92D, S93D
notes: also called COVID19_PO1_H10
B13: COVID19_P14_F05 (scFv, V domains shown)
VH: B10 VH with S27N, R54I, S57T
VL: B1 VL with A92V
B14: COVID19_P13_H07 (scFv, V domains shown)
VH: QVQLVQSGAEVKKPGSSVKVSCKASGYTFINYDINWVRQAPGQGLEWMGGITPIFGTAKYAQKFQGRVTITADESTSTAYMELSSLRSEDTAVYYCARDTVMGGMDVWGQGTLVTVSS
VL: B1 VL with A92D
B15: COVID19_P14_E07 (scFv, V domains shown)
VH: B14 VH with K59N
VL: B1 VL with A92D, S94H
B16: COVID19_P14_G01 (scFv, V domains shown)
VH: B14 VH with T28N, D33Y, I34L, N35H, T57I, K59N, D99E
VL: B1 VL with N27K, A92D, S94G
B17: COVID19_P14_D07 (scFv, V domains shown)
VH: QVQLVQSGAEVKKPGSSVKVSCKASGYTFSSFYIHWVRQAPGQGLEWMGGIIPIFGEAEYAHKFQGRVTITADESTSTAYMELSSLRSEDTAVYYCAMETVMGGMDVWGQGTLVTVSS
VL: B1 VL with A92D
B18: COVID19_P14_E01 (scFv, V domains shown)
VH: B14 VH with I30T, N31S, D33Y, I34M, N35H, K59N, R98V, D99E, D106Q, V107M
VL: B1 VL with A92D
B19: COVID19_P14_C01 (scFv, V domains shown)
VH: B17 VH with S31D, I34L, I52T, E57T, E59N, H62Q
VL: B1 VL with A92D
B20: COVID19_P14_F08 (scFv, V domains shown)
VH: B17 VH with S30T, S31A, F55S, E57T, E59N, H62Q, V68A, M98R, T100V
VL: B1 VL with A92D, S94T
B21: COVID19_P01_H07 (scFv, V domains shown)
VH: QVQLVQSGAEVKKPGSSVKVSCKASGYSFNNYDLHWVRQAPGQGLEWMGGIIPIFDTANYAQKFQGRVTITADESTSTAYMELSSLRSEDTAVYYCALETVMGGMVKWGQGTLVTVSS
VL: B1 VL with V78I, A92D, S95G
B22: COVID19_P01_H06 (scFv, V domains shown)
VH: B8 VH with A28T, V50L, E55G, S57T, N60Y, R62Q, S98W
VL: SYVLTQPPSVSVAPGKTAARITCGGNNIGSKSVHWYQQKPGQAPVLVIYKDGERPSGIPERFSGSNSRNTATLTISRVEAGDEADYYCQVWDSSSLYVFGGGTKLTVLA

biological target: T1, SARS-CoV-2 Receptor Binding Domain (RBD) protein (SARS-CoV-2, UniProt P0DTC2 319-541); experiment: SPR (Carterra LSA)
T1 construct: also called Sars-Cov-2 (COV2)

Binder | Kd
B1 | < 50 nM
B2 | < 50 nM
B3 | < 50 nM
B4 | < 50 nM
B5 | < 50 nM
B6 | < 50 nM
B7 | < 50 nM
B8 | < 50 nM
B9 | < 50 nM
B10 | < 50 nM
B11 | < 50 nM
B12 | < 50 nM
B13 | < 50 nM
B14 | < 50 nM
B15 | < 50 nM
B16 | < 50 nM
B17 | < 50 nM
B18 | < 50 nM
B19 | < 50 nM
B20 | < 50 nM

biological target: SARS-CoV-2 spike protein (on pseudovirus) (SARS-CoV-2, UniProt P0DTC2 14-1273); experiment: cell-based or functional assay

Binder | IC50 [µg/mL] pseudotyped lenti neutralization
B1 | 35 µg/mL
B14 | 15 µg/mL
B21 | 6.5 µg/mL
B22 | 2.1 µg/mL

biological target: T1, SARS-CoV-2 Receptor Binding Domain …; experiment: SPR (Carterra LSA); scFv captured by anti-V5, RBD as analyte

Binder | Kd | koff | kon
B1 | 1.11 nM | 0.000468 s⁻¹ | 423000 M⁻¹ s⁻¹
B2 | 28.3 nM | 0.01 s⁻¹ | 355000 M⁻¹ s⁻¹
B3 | 17 nM | 0.00245 s⁻¹ | 144000 M⁻¹ s⁻¹
B4 | 33.8 nM | 0.0149 s⁻¹ | 442000 M⁻¹ s⁻¹
B5 | 5.87 nM | 0.000586 s⁻¹ | 99900 M⁻¹ s⁻¹
B6 | 48.3 nM | 0.0024 s⁻¹ | 49700 M⁻¹ s⁻¹
B7 | 34.2 nM | 0.0131 s⁻¹ | 383000 M⁻¹ s⁻¹
B8 | 41.4 nM | 0.0187 s⁻¹ | 451000 M⁻¹ s⁻¹
B9 | 21.9 nM | 0.0037 s⁻¹ | 170000 M⁻¹ s⁻¹
B10 | 45.1 nM | 0.0147 s⁻¹ | 326000 M⁻¹ s⁻¹
B11 | 48 nM | 0.0141 s⁻¹ | 294000 M⁻¹ s⁻¹
B12 | 39.3 nM | 0.0148 s⁻¹ | 377000 M⁻¹ s⁻¹
B13 | 21.7 nM | 0.00152 s⁻¹ | 69900 M⁻¹ s⁻¹
B14 | 1.92 nM | 0.00031 s⁻¹ | 160000 M⁻¹ s⁻¹
B15 | 5.67 nM | 0.000778 s⁻¹ | 137000 M⁻¹ s⁻¹
B16 | 8.45 nM | 0.000842 s⁻¹ | 99700 M⁻¹ s⁻¹
B17 | 6.08 nM | 0.00232 s⁻¹ | 381000 M⁻¹ s⁻¹
B21 | 0.81 nM | 0.000401 s⁻¹ | 496000 M⁻¹ s⁻¹
B18 | 10.7 nM | 0.000819 s⁻¹ | 76800 M⁻¹ s⁻¹
B19 | 12.1 nM | 0.00191 s⁻¹ | 158000 M⁻¹ s⁻¹
B20 | 25 nM | 0.00283 s⁻¹ | 113000 M⁻¹ s⁻¹
B22 | 1.31 nM | 0.000621 s⁻¹ | 474000 M⁻¹ s⁻¹

— patent publication US20230272051A1 (CENTIVAX, published 2023)
